Patent publication US7807629 (ALCON RESEARCH, dated 2010)
Square brackets hold non-standard residues; d marks the D form. Ends that are not written are not given here. Hyp = O=C(O)[C@@H]1C[C@@H](O)CN1

T1: human bradykinin B2 receptor (human, UniProt P30411 1-391)
T1 sequence (looked up): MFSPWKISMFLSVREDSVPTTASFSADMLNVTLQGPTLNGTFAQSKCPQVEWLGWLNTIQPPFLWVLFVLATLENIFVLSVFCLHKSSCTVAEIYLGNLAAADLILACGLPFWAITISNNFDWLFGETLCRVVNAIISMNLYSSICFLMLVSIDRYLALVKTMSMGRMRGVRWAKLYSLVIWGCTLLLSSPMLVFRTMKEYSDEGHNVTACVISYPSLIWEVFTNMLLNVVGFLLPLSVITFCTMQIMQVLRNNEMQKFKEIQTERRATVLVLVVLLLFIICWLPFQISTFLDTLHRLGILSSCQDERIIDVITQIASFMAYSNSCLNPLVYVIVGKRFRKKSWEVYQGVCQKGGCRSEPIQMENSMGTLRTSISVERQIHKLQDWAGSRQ


Target: T1, human bradykinin B2 receptor
Assay: cell-based or functional assay

Row | Binder | [Ca^2+]i mobilization, Agonist Potency (EC50), h-NPE cells | [Ca^2+]i mobilization, Agonist Potency (EC50), h-TM cells | [Ca^2+]i mobilization, Agonist Potency (EC50), h-CM cells
1 | RP[Hyp]GFSPFR [Hyp^3-BK] | 6 nM | 0.9 nM | 
2 | KRPPGFSPFR [Lys-BK] | 19.6 nM | 1.9 nM | 3.2 nM
3 | MKRPPGFSPFR [Met-Lys-BK] | 125 nM | 6.5 nM | 16.1 nM
